Measured values reported in the nanobody polyreactivity screen of Harvey et al. (2022).

Experiment: yeast display, Sf9 membrane polyspecificity reagent, FACS + sequencing; frameworks hold sequencing errors
Outline: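 Galactose induction of a Saccharomyces cerevisiae BJ5465 synthetic nanobody display library ran 36–48 hours. The cells were then stained for 1 hour at 4 °C with 10% biotinylated, detergent-solubilized Sf9 membrane reagent, pulled down on streptavidin microbeads and FACS-sorted into low and high (top ~1%) gates on expression and reagent-binding fluorescence. Labels for polyreactivity follow the gate of origin.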

| Sequence | polyreactivity (PSR sort gate) |
| --- | --- |
| QVQLVESGGGLVQAGGSLRLSCAASGRIFSHYAMGWYRQAPGKERELVAAITSDGSTNYADSVKGRFTISRDNAKNTVYLQMNSLKPEDTAVYYCADYDYWGQGTQVTVSS | low polyreactivity |
| QVQLVESGGGLVQAGGSLRLSCAASGRIFSINVMGWYRHAPGKERELVAAISKRGGSTYYADSVKGRFTISRDNAKNTVYLQMNSLKPEDTAVYYCAARRHYTYGNGPSRGGQMDYWGQGTQVTVSS | high polyreactivity |
| QVQLVESGGGLVQAGGSLRLSCAASGRIFSIYTMGWSRQAPGKERELVAAISASDGSTYYADSVKGRFTISRDNAKNTVYLQMNSLKPEDTAVYYCAIDTYPQKVTYGSFAYDYWGEGTQVTVSS | low polyreactivity |
| QVQLVESGGGLVQAGGSLRLSCAASGRIFSKNAMGWCRQAPGKERELVAGITSNSGSTYYADSVKGRFTISRDNAKNTVYLQMNSLIPEDTAVYYCAARFPHRHYLLYTYDYWGQGTQVTVSS | low polyreactivity |
| QVQLVESGGGLVQAGGSLRLSCAASGRIFSKNAMGWYRKAPGKERELVAAISWSGGSTYYADSVKGRFTISRDNAKNTVYLQMNSLKPEDTAVYYCAADSPRYGGYGYWGQGTQVTVSS | low polyreactivity |
| QVQLVESGGGLVQAGGSLRLSCAASGRIFSKYAMGWYRQAPGKERELVASIRWRGDRTYYADSVKGRFTISRDNAKNTVYLQMNSLKPEDTAVYYCAVETLWQGSEYWVQGTQVTVSS | low polyreactivity |
| QVQLVESGGGLVQAGGSLRLSCAASGRIFSLYAMGWYRQAPGKERELVAAITWSSGSTYYADSVKGRFTISRDNAKNTVYLQMNSLKPEDTAVYYCAARVFTLLGYSYEYWGQGTQVTVSS | low polyreactivity |
| QVQLVESGGGLVQAGGSLRLSCAASGRIFSNNAMGWYRQAPGKERELVAAITNSGGSTYYADSVKGRFTISRDNAKNTVYLQMNSLKPEDTAVYYCAADHLSVQYDVYWTYYYWGQGTQVTVSS | low polyreactivity |
| QVQLVESGGGLVQAGGSLRLSCAASGRIFSPNAMGWYRQAPGKERELVAAITRGGSTNYADSVKGRFTISRDNAKNTVYLQMNSLKPEDTAVYYCAAQLAKTIRGRGYNSWGQGTQVTVSS | low polyreactivity |
| QVQLVESGGGLVQAGGSLRLSCAASGRIFSPYAMGWYRQAPGKERELVAAINSIGGSTYYADSVKGRFTISRDNAKNTVYLQMNSLKPEDTAVYYCAVKWYRLGLIRWGGYWGQGTQVTVSS | high polyreactivity |
| QVQLVESGGGLVQAGGSLRLSCAASGRIFSQYDMGWYRPAPGKERELVAAISGGVGTNYADSVKGRFTISRDNAKNTVYLQMNSLKPEDTAVYYCAADYSFERSEYEYWGQGTQVTVSS | low polyreactivity |
| QVQLVESGGGLVQAGGSLRLSCAASGRIFSRNAMGWYRPAPGKERELVAAISWRGGRTYYADSVKGRFTISRDNAKNTVYLQMNSLKPEDTAVYYCNAVYRLSHYDLDYWGQGTQVTVSS | high polyreactivity |
| QVQLVESGGGLVQAGGSLRLSCAASGRIFSRNAMGWYRQAPGKERELVAAISRRGGSTSYADSVKGRFTISRDNAMNTVYLQMNSLKPEDTAVYYCAAEDEYYCTRGYWYSRYDYWGQGTQVTVSS | high polyreactivity |
| QVQLVESGGGLVQAGGSLRLSCAASGRIFSRNTMGWYRQAPGKEREIVAAISQSGGRTYYADSVKGRFTISRDNAKNPVYLQMNSLNPEDTEVYYCNAQFARSSGFNYWGQGTQVTVSS | high polyreactivity |
| QVQLVESGGGLVQAGGSLRLSCAASGRIFSRYALGWYRQAPGKERELVAGITRSGTTTYYADSVKGRFTISRDNAKNTVYLQMNSLKPEDTAVYYCAAPPIGPNLYDYWGQGTQVTVSS | high polyreactivity |
| QVQLVESGGGLVQAGGSLRLSCAASGRIFSRYAMGGYRQAPGTERELVAAINNGGSTYYADSVKGRFTISRDNAKNTVYLQMNSLKPEDTAVYYCAKLWWSNFKPVEYWGQGTQVTVSS | low polyreactivity |
| QVQLVESGGGLVQAGGSLRLSCAASGRIFSRYAMGWYRQAPGKERELVAAISCNGCSTYYADSVKGRFTISRDNAKNTVYLQMNSLKPEDTAVYYCAAYRPGPYAAYGYWGQGTQVTVSS | high polyreactivity |
| QVQLVESGGGLVQAGGSLRLSCAASGRIFSRYAMGWYRQAPGKERELVAAITRGGSTYYADSVKGRFTISRDNAKNTVYLQMNSLKPEDTAVYYCAKDGYRPDDYGYWGQGTQVTVSS | high polyreactivity |
| QVQLVESGGGLVQAGGSLRLSCAASGRIFSRYTMGWYRQAPGKERELVAAISSRGGSTYYADSVKGRFTISRDNAKNTVYLQMNSLKREDTAVYYCNTPSYSGSSPYDHWGQGTQVTVSS | high polyreactivity |
| QVQLVESGGGLVQAGGSLRLSCAASGRIFSRYTMGWYRQAPGKERELVAAISSRGGSTYYADSVKVRFTISRDNAKNTVYLQMNSLKPEDTAVYYCNTPSYSGSSPYDHWGQGTQVTVSS | high polyreactivity |
| QVQLVESGGGLVQAGGSLRLSCAASGRIFSRYVMGWYRQAPGKERELVAAISWNGGSTYYADSVKGRFRISRDNAKNTVYFQMNSLIPEDTAVYYCAARVRVTGTYYTKYDYWGQGTQVTVSS | high polyreactivity |
| QVQLVESGGGLVQAGGSLRLSCAASGRIFSSNAMGWYRQAPGKERELVAAITKSGGGTYYADSVKGRFTISRDNAKNTVYLQMNSLKPEDSAVYYCAADHGRPYFSYDYWGQGTQVTVSS | low polyreactivity |

| Sequence | polyreactivity (PSR sort gate) |
| --- | --- |
| QVQLVESGGGLVQAGGSLRLSCAASGRIFSSNAMGWYRQAPGTERELVAAITSGGSTYADSVKGRFTISRDNAKNTVYLQMNSLKPEDTAVYYCATRQGWYGWYGYWGQGTQVTVSS | high polyreactivity |
| QVQLVESGGGLVQAGGSLRLSCAASGRIFSSYAMGWYRQAPGKERELVAAISRGGSTYYADSVKGRFTISRDNAKNTVYLQMNSLKPEDTAVYYCAAASYSYSERRYYYWGQGTQVTVSS | high polyreactivity |
| QVQLVESGGGLVQAGGSLRLSCAASGRIFSSYVMGLYRQAPGKERELVAAIRWSGGSTYYADSVKGRFTISRDNAKNTVYLQMNSLKPEDTAVYYCAAEVYRYYATGYGYWGQGTQVTVSS | high polyreactivity |
| QVQLVESGGGLVQAGGSLRLSCAASGRIFSTNARGWYRQAPGKQRELVAVITGIGGITYYADSVKGRFTISSDNAKNTVYLKMNSLKPEDTAVYYCGADPISEFYWGVKDRYDYWGQGTQVTVSS | low polyreactivity |
| QVQLVESGGGLVQAGGSLRLSCAASGRIFSVKVMGWYRQAPGKERELVAAITWSVGSTYYADSVKGRFTISRDNPKNTVSLQMNSLKREDTAVYYCAARGPPVYGRVGGYHYWGQGTQVTVSS | low polyreactivity |
| QVQLVESGGGLVQAGGSLRLSCAASGRIFSVYAMGWYRQAPGTERELVAVITTSGGSTYYADSVKGRFTISRGNAKNTVYLQMNSLKPEDTAVYYCNAEPWSYAIGSYEYWGQGTQVTVSS | high polyreactivity |
| QVQLVESGGGLVQAGGSLRLSCAASGRIFSVYAMVWYRQAPGKEREFVAAITKGGVGTYYADSVKGRFTISRDNAKNTVYLQMNSLKPEDTAVYYFAARHYYGADRYYSWGQGTQVTVSS | high polyreactivity |
| QVQLVESGGGLVQAGGSLRLSCAASGRIFSVYARGWYRQAPGKERELVAAITWTGGRTYYADSVKGRFTISRDNAKNTVYLQMNSLKPEDTAVYYCAAQWVRSYQMYWGQGTQVTVSS | high polyreactivity |
| QVQLVESGGGLVQAGGSLRLSCAASGRIFSWNAMGWYRQAPGKERELVAAISSGGSTIYADSVKGRFTISRDNAKNTVYLQMNSLKPEYTAVYYCATRNGYSGTYGYWGQGTQVTVSS | low polyreactivity |
| QVQLVESGGGLVQAGGSLRLSCAASGRIFSYAMGWYRQAPGKEREFVAAIRWSGGRTYYADSVKGRFTISRDNAKNTVYLQMNSLKPEDTAVYYCARQGYTLYRTRYRYDYWGQGTQVTVSS | high polyreactivity |
| QVQLVESGGGLVQAGGSLRLSCAASGRIFSYAMGWYRQAPGKERELVAAITRRGSTYYADSVKGRFTISRDNAKNTVYLQMKSLKPEDTAVYYCAADIYYSRTFYPMGYWGQGTQVTVSS | high polyreactivity |
| QVQLVESGGGLVQAGGSLRLSCAASGRIFSYNAMGWYRQAPGKERELVAAISYSGGRTYYADSVKGRFTISRDNAKNTVYLQMNSLKPEDTAVYYCAAAYGGSLRYTAGYYWGQGTQVTVSS | high polyreactivity |
| QVQLVESGGGLVQAGGSLRLSCAASGRIFSYNAMGWYRQAPGKERELVAAITGGGSTNYADSVKGRFTISRDNAKNTVYLQMNSLKAEDTAVYYCAARSWSYKYWGQGTQVTVSS | high polyreactivity |
| QVQLVESGGGLVQAGGSLRLSCAASGRIFSYNAMGWYRQAPGKERELVAAITSSGSTYADSVKVRFTISRDNAKNTVYLQMNSLKPEDTAVYYCASYYNWSGHYYWGQGTQVTVSS | low polyreactivity |
| QVQLVESGGGLVQAGGSLRLSCAASGRIFSYNAMGWYRQAPGQERELVASISGRGVITYYADSVKGRFTISRDNAKNTVYLQMNSLKPEDTAVYYCNARYIYTRPRPRNYWGQGTQVTVSS | high polyreactivity |
| QVQLVESGGGLVQAGGSLRLSCAASGRIFSYYAMGWYRPAPGTERELVAAITRAGGTNYADSVKGRFTISRDNAKNTVYLQMNSVKPEDTAVYYCAADRSRYRYNAPRYAYDYWGQGTQVTVSS | high polyreactivity |
| QVQLVESGGGLVQAGGSLRLSCAASGRIFSYYAMGWYRQAPGKERELVAAINWSGGSTYYADSVKGRFTISRDNAKNTVYLQMNSLKPEDTAVYYCAVDWTSAYGTYYYTPYDSWGQGTQVTVSS | low polyreactivity |
| QVQLVESGGGLVQAGGSLRLSCAASGRIFSYYAMGWYRQAPGKERELVAAISRSGGRTYYADSVKGRFTISRDNAKNTVYLQMNSLKPEDTAVYYCAALQRDYSGRYPVSMYYWGQGTQVTVSS | high polyreactivity |
| QVQLVESGGGLVQAGGSLRLSCAASGRIFSYYAMGWYRQAPGKERELVAAISRTGGRTYYADSVKGRFTISRDNAKNTVYLQKNSLKPEDTAVYYCNVVGRRYWHWDQALDYWGQGTQVTVSS | high polyreactivity |
| QVQLVESGGGLVQAGGSLRLSCAASGRIFSYYAMGWYRQAPGKERELVAAISSSGGSTYYADSVKGRFTISRDNAKNTVYLQMNSLKPEDTAVYYCAKLQYGFGRYGYWGQGTQVTVSS | high polyreactivity |
| QVQLVESGGGLVQAGGSLRLSCAASGRIFSYYAMGWYRQAPGKERELVAGIRSGCSTNYADSVKGRFTISRDNAKNTVYLQMNSLKPEDTAVYYCAARYFKFYSKGSFRYLYESWGQGTQVTVSS | high polyreactivity |
